1 molecule from PMC8857057 can be followed below.

This data set has as its target Pab1 monomer (Saccharomyces cerevisiae, UniProt P04147 1-577). The experiment in a line: fluorescence anisotropy. In general terms: Fluorescence polarisation rises when a labelled molecule tumbles more slowly, as on binding a larger partner.

Chain of Pab1 monomer (P04147 whole entry): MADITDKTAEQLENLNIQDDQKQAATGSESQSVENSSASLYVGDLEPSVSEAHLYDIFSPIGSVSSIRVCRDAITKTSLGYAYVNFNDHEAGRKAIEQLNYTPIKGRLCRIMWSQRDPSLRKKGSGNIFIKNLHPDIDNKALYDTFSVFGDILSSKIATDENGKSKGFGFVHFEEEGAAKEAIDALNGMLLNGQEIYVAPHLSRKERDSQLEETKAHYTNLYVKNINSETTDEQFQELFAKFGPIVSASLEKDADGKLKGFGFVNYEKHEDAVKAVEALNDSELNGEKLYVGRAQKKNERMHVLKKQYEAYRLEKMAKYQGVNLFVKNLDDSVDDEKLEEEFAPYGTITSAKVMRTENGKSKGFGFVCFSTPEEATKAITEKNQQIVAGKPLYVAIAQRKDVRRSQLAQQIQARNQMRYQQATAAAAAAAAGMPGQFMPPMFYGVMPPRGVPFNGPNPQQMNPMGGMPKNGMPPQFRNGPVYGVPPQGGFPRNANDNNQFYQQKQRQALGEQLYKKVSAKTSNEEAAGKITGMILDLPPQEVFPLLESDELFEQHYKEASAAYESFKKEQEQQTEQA

B1: A19 RNA (ssRNA)
RNA: AAAAAAAAAAAAAAAAAAA
Turning to B1, the binding result is “binds”.
